Results reported in patent US9138474B2, “Composition comprising expression or activity inhibitors of Ninjurin1 for the prevention and treatment of inflammatory disease” (SNU R&DB FOUNDATION, priority 2008, dated 2015).

What was measured:
[1] = test system: Wnt7b expression; assay: Wnt7b expression (RT-PCR) in BV2 cells expressing Myc-Ninjurin1 treated with p38 inhibitor; assay type: cell-based, rodent; conditions: 0, 10, 30 uM, 24 hours
Method: Primary cultured human microvascular pericytes (Applied Cell Biology Research Institute) were cultured in Dulbecco's modified Eagle's medium (DMEM); Raw 264.7 cells (TIB-71™) and BV2 cells were cultured in DMEM; and HUVEC cells were cultured in M199 supplemented with 20% FBS (Invitrogen, Grand Island, N.Y.). Those cells were cultured at 37° C. in humid air composed of […] and 5% CO2. Raw cells and BV2 cells were transformed by using Lipofectamine Plus Reagent (Invitrogen). Cell lysate was prepared by using lysis buffer (40 mM Tris-Cl pH 8.4, 10 mM EDTA, 120 mM NaCl, 0.1% NP-40). To prepare culture solution to treat human microvascular pericytes, transformed macrophages were cultured in serum (FBS)-free DMEM for 24 hours, which were then filtered with 0.22 […] filter paper (Millipore), followed by 10 fold concentration using centrifugation filtering tube (Millipore). For the chemical treatment, cells were cultured at the density of 60-70% and then treated with Ang1 and Ang2 (500-1000 ng/ml) independently or together in serum free condition for 14-16 hours. To understand signal transduction pathway, cells were transformed with Mock or Ninjurin1 cDNA. Serum was depleted for 14-16 hours and then the cells were treated with SB203580 (Sigma), the p38 inhibitor, for 24 hours. […]

[2] = test system: rodent originated macrophages (Raw264.7, BV2); assay: Wnt7b and Ninjurin1 quantified by RT-PCR in macrophages in the presence of rh-Ang1 or rh-Ang2; assay type: cell-based; conditions: 0, 1 and 2.5 ug/ml
Method: Primary cultured human microvascular pericytes (Applied Cell Biology Research Institute) were cultured in Dulbecco's modified Eagle's medium (DMEM); Raw 264.7 cells (TIB-71™) and BV2 cells were cultured in DMEM; and HUVEC cells were cultured in M199 supplemented with 20% FBS (Invitrogen, Grand Island, N.Y.). Those cells were cultured at 37° C. in humid air composed of […] and 5% CO2. Raw cells and BV2 cells were transformed by using Lipofectamine Plus Reagent (Invitrogen). Cell lysate was prepared by using lysis buffer (40 mM Tris-Cl pH 8.4, 10 mM EDTA, 120 mM NaCl, 0.1% NP-40). To prepare culture solution to treat human microvascular pericytes, transformed macrophages were cultured in serum (FBS)-free DMEM for 24 hours, which were then filtered with 0.22 […] filter paper (Millipore), followed by 10 fold concentration using centrifugation filtering tube (Millipore). For the chemical treatment, cells were cultured at the density of 60-70% and then treated with Ang1 and Ang2 (500-1000 ng/ml) independently or together in serum free condition for 14-16 hours. To understand signal transduction pathway, cells were transformed with Mock or Ninjurin1 cDNA. Serum was depleted for 14-16 hours and then the cells were treated with SB203580 (Sigma), the p38 inhibitor, for 24 hours.
Particularly, RT-PCR and real time PCR were performed as follows: Transformed BV2 cells were cultured in DMEM supplemented with 1% serum for 2 days, and then RNA was extracted by using Trizol reagent (Invitrogen). Following primers were used for RT-PCR: Gapdh: forward primer 5′-[…]-3′ (SEQ. ID. NO: 4), reverse primer 5′-[…]-3′ (SEQ. ID. NO: 5); Ninjurin1: forward primer 5′-GAGTCGGGCACTGAGGA-3′ (SEQ. ID. NO: 6), reverse primer: 5′-GTTGCAGGGGTCTGGTCA-3′ (SEQ. ID. NO: 7); Ang1: forward primer 5′-[…]-3′ (SEQ. ID. NO: 8), reverse primer: 5′-[…]-3′ (SEQ. ID. NO: 9); Ang2: forward primer 5′-[…]-3′ (SEQ. ID. NO: 10), reverse primer: 5′-[…]-3′ (SEQ. ID. NO: 11); Wnt7b: forward primer 5′-[…]-3′ (SEQ. ID. NO: 12), reverse primer: 5′-[…]-3′ (SEQ. ID. NO: 13); Wnt7b: 2nd round forward primer 5′-[…]-3′ (SEQ. ID. NO: 14), reverse primer: 5′-[…]-3′ (SEQ. ID. NO: 15). The PCR products were separated on 1.2% agarose gel containing EtBr (ethidium bromide), followed by analysis by digital imaging. Primers used for real-time PCR were as follows: Ang2: forward primer 5′-[…]-3′ (SEQ. ID. NO: 16), reverse primer: 5′-[…]-3′ (SEQ. ID. NO: 17); Gapdh, Ang1 and Wnt7: same primers as used for RT-PCR were used. […]
To investigate interaction among Wnt7b, Ninjurin1, Ang1 and Ang2, Wnt7b and Ninjurin1 were quantified by RT-PCR in the presence of recombinant human Ang1 (rh-Ang1) and rh-Ang2 at different concentrations (0, 1 and 2.5 ug/ml) in rodent originated macrophages (Raw264.7, BV2).

| Molecule | Wnt7b expression stimulated by Ninjurin1 [1] | Ninjurin1 expression [2] | Wnt7b expression [2] |
| --- | --- | --- | --- |
| C[S+]([O-])c1ccc(-c2nc(-c3ccncc3)c(-c3ccc(F)cc3)[nH]2)cc1 (centres unmarked) [p38 inhibitor, SB203580] | reduced |  |  |
| rh-Ang1: recombinant human Ang1 (angiopoietin-1), R&D Systems (protein, UniProt Q15389 16-498, looked up) Angiopoietin-1: HIGCSNQRRSPENSGRRYNRIQHGQCAYTFILPEHDGNCRESTTDQYNTNALQRDAPHVEPDFSSQKLQHLEHVMENYTQWLQKLENYIVENMKSEMAQIQQNAVQNHTATMLEIGTSLLSQTAEQTRKLTDVETQVLNQTSRLEIQLLENSLSTYKLEKQLLQQTNEILKIHEKNSLLEHKILEMEGKHKEELDTLKEEKENLQGLVTRQTYIIQELEKQLNRATTNNSVLQKQQLELMDTVHNLVNLCTKEGVLLKGGKREEEKPFRDCADVYQAGFNKSGIYTIYINNMPEPKKVFCNMDVNGGGWTVIQHREDGSLDFQRGWKEYKMGFGNPSGEYWLGNEFIFAITSQRQYMLRIELMDWEGNRAYSQYDRFHIGNEKQNYRLYLKGHTGTAGKQSSLILHGADFSTKDADNDNCMCKCALMLTGGWWFDACGPSNLNGMFYTAGQNHGKLNGIKWHYFKGPSYSLRSTTMMIRPLDF |  | reduced | reduced |
| rh-Ang2: recombinant human Ang2 (angiopoietin-2), R&D Systems (protein, UniProt O15123 19-496, looked up) Angiopoietin-2: YNNFRKSMDSIGKKQYQVQHGSCSYTFLLPEMDNCRSSSSPYVSNAVQRDAPLEYDDSVQRLQVLENIMENNTQWLMKLENYIQDNMKKEMVEIQQNAVQNQTAVMIEIGTNLLNQTAEQTRKLTDVEAQVLNQTTRLELQLLEHSLSTNKLEKQILDQTSEINKLQDKNSFLEKKVLAMEDKHIIQLQSIKEEKDQLQVLVSKQNSIIEELEKKIVTATVNNSVLQKQQHDLMETVNNLLTMMSTSNSAKDPTVAKEEQISFRDCAEVFKSGHTTNGIYTLTFPNSTEEIKAYCDMEAGGGGWTIIQRREDGSVDFQRTWKEYKVGFGNPSGEYWLGNEFVSQLTNQQRYVLKIHLKDWEGNEAYSLYEHFYLSSEELNYRIHLKGLTGTAGKISSISQPGNDFSTKDGDNDKCICKCSQMLTGGWWFDACGPSNLNGMYYPQRQNTNKFNGIKWYYWKGSGYSLKATTMMIRPADF |  | increased | increased |
